This passage reports Kd and binding signal results from publication PMC6451128, “Structural and functional analysis of the nucleotide and DNA binding activities of the human PIF1 helicase”.

Conditions in all cases: protein: recombinant; tags: His tag removed, GSRM left; label: 5' 32P (PNK)
For one data set, the target named is T1, hPIF1HD R290A (human, UniProt Q9H611 206-620, R290A).
T1 sequence: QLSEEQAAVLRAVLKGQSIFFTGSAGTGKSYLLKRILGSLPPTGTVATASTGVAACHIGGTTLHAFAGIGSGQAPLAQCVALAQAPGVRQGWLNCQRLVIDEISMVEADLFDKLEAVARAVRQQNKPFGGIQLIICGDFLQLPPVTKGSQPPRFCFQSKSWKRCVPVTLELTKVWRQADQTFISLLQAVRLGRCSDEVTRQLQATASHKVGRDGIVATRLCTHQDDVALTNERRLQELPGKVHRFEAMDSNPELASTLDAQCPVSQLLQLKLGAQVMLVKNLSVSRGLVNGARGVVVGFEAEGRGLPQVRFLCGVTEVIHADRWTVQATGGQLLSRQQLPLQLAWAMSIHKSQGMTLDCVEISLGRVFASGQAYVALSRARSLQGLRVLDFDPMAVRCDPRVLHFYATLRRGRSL
Description: EMSA; no nucleotide; apparent, near saturation not reached; 20 mM HEPES-NaOH pH 7.5 (Results say pH 7.2), 135 mM NaCl, 5% glycerol, 1 mM DTT, 1 mg/ml BSA, 20 min at 20 C; 0.4 nM T(35); G4 assay: 0.1 nM G4 DNA, 2% PEG 8000 instead of glycerol, 5 uM T(35) competitor.

A further data set has as its target T2, hPIF1HD N486A (human, UniProt Q9H611 206-620, N486A).
T2 sequence: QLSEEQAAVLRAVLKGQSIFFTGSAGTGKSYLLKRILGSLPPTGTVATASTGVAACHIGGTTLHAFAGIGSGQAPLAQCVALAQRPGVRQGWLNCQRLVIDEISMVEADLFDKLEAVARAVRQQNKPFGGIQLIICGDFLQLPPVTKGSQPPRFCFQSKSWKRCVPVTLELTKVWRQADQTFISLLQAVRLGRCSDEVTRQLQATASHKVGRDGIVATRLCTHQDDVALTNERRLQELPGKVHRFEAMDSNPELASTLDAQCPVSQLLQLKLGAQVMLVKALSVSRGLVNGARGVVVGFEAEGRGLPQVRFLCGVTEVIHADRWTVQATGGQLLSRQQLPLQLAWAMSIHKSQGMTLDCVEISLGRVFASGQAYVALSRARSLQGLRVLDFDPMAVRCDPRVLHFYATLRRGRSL
The experiment in a line: EMSA; no nucleotide; 20 mM HEPES-NaOH pH 7.5 (Results say pH 7.2), 135 mM NaCl, 5% glycerol, 1 mM DTT, 1 mg/ml BSA, 20 min at 20 C; 0.4 nM T(35); G4 assay: 0.1 nM G4 DNA, 2% PEG 8000 instead of glycerol, 5 uM T(35) competitor.

The next data set has as its target T3, hPIF1HD K556A (human, UniProt Q9H611 206-620, K556A).
T3 sequence: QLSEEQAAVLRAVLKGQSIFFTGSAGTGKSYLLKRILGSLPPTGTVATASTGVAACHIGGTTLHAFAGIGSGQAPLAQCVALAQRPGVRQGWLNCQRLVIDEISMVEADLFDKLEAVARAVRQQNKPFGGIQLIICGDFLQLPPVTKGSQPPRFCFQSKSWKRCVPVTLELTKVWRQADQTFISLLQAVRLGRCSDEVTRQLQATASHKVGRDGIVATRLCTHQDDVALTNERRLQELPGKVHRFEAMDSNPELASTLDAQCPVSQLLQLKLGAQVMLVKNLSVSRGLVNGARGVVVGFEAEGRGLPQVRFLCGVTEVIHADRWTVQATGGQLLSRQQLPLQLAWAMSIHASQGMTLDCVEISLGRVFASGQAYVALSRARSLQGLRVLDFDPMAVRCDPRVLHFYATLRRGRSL
The experiment in a line: EMSA; no nucleotide; greatest defect; 20 mM HEPES-NaOH pH 7.5 (Results say pH 7.2), 135 mM NaCl, 5% glycerol, 1 mM DTT, 1 mg/ml BSA, 20 min at 20 C; 0.4 nM T(35); G4 assay: 0.1 nM G4 DNA, 2% PEG 8000 instead of glycerol, 5 uM T(35) competitor.

The next data set addresses T4, hPIF1HD P291A (human, UniProt Q9H611 206-620, P291A).
T4 sequence: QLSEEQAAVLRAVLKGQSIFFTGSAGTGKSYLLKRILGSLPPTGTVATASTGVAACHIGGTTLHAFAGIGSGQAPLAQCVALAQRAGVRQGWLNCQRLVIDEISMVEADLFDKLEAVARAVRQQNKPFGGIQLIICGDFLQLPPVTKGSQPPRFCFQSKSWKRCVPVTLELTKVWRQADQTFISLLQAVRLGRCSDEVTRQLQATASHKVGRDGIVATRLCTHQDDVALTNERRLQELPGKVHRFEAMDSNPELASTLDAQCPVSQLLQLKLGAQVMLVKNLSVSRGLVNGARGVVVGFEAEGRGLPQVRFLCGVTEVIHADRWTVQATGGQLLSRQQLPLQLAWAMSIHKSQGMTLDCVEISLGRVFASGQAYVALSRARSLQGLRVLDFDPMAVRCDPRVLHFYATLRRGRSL
The experiment in a line: EMSA; no nucleotide; apparent; 20 mM HEPES-NaOH pH 7.5 (Results say pH 7.2), 135 mM NaCl, 5% glycerol, 1 mM DTT, 1 mg/ml BSA, 20 min at 20 C; 0.4 nM T(35); G4 assay: 0.1 nM G4 DNA, 2% PEG 8000 instead of glycerol, 5 uM T(35) competitor.

Where only a bound is given, the exact number is not on record here.

TTTTTTTTTTTTTTTTTTTTTTTTTTTTTTTTTTT (ssDNA) [poly-T(35)]: the Kd in the data set with hPIF1HD R290A is about 40.4 nM; in the data set with hPIF1HD P291A, 1.9 ± 0.6 nM. Besides, the binding signal in the data set with hPIF1HD N486A and with hPIF1HD K556A was > 50 fold decrease in affinity vs WT each time.
